Starred links: 1 amine or outer side, 2 acyl side, 3 side chain; linkers in the order of their positions; H or OH if unused. Non-standard residues stand in square brackets, D forms with d. Groups on a side chain read outwards from the residue. No end group written: not given here. *: point of attachment. C20 diacid = O=C(O)CCCCCCCCCCCCCCCCCCC(=O)*; Phe(4-CN) = N#Cc1ccc(C[C@H](N)C(=O)O)cc1; αMePhe(2-F) = C[C@](N)(Cc1ccccc1F)C(=O)O; γGlu = O=C(O)[C@H](CCC(=O)[*:2])N[*:1]; αMeL = CC(C)C[C@](C)(N)C(=O)O; AEEA = NCCOCCOCC(=O)O; Aib = CC(C)(N)C(=O)O

Holding throughout (experiment): cell-based or functional assay
Assay [1] concerns the target T1, human GIP receptor (human) (UniProt P48546).
T1 sequence (looked up): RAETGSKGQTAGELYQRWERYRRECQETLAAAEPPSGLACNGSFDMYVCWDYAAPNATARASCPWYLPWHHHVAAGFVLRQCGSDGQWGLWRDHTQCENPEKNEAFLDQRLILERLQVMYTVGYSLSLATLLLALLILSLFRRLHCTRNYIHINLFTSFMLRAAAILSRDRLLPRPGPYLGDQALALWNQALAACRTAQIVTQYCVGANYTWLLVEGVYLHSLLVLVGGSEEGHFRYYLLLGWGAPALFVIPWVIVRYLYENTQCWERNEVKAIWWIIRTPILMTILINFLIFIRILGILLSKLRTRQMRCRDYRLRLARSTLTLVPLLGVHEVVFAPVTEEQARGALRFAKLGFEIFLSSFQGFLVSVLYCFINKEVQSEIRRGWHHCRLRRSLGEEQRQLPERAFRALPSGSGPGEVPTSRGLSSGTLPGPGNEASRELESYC

The next assay addresses hGLP-1R (Homo sapiens, UniProt P43220).
Assay [2] has as its target human glucagon receptor (human) (UniProt P47871).

Chain of hGLP-1R (P43220 24-463): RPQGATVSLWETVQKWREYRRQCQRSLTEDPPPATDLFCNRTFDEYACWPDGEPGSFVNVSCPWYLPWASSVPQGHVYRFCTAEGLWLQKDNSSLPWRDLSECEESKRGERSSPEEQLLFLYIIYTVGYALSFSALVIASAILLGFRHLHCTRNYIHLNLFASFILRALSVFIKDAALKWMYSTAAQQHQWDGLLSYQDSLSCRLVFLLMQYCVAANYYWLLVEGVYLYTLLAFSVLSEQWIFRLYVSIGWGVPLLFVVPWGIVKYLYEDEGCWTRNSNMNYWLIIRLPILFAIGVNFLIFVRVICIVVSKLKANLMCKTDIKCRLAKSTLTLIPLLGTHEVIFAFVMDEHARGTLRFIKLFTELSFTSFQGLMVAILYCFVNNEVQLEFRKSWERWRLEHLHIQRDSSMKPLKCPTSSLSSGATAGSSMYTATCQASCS
Chain of human glucagon receptor (human) (P47871 26-477): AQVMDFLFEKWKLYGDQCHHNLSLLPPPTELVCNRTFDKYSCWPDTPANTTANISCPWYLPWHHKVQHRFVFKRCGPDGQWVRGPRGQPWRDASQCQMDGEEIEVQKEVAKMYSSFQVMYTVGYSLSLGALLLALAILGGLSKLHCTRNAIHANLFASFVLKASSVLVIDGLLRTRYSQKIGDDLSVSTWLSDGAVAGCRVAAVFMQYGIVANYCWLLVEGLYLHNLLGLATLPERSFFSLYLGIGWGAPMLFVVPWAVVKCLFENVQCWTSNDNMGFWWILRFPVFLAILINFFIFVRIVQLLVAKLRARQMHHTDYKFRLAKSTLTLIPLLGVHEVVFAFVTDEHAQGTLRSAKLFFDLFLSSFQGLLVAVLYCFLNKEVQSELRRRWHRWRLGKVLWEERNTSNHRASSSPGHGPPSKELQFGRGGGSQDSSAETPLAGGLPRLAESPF

B1: Example 343 (peptide)
chain: YXQGTFTSDYSKXLDKKAQXAFVQWLLEGGPSSGEPPPSEG
modifications: not fully specified; synthetic construct; SITE 2: note = 2-Aminoisobutyric Acid; SITE 13: note = alpha-methyl-leucine; SITE 17: note = Lysine is chemically modified through conjugation of the epsilon-amino group of the Lysine side chain with (2-[2-(2-Amino-ethoxy)-ethoxy]-acetyl)-(gamma-Glu)-CO-(CH2) 18-CO2H; SITE 20: n
Regarding B1, the Relative cAMP EC50 in assay [1] is 0.184 nM; with hGLP-1R, 1.31 nM; in assay [2] it was 6.83 nM. Moreover, the cAMP Rel EC50 (1% HSA) in assay [1] came to 16.7 nM; in the assay with hGLP-1R, 178 nM; in assay [2], 475 nM.

Regarding Y[Aib]QGTFTSDYSI[αMeL]LDKQAAKQFVEWLIA[Aib]GPSSGEPPPGSG-NH2 (not fully specified (residue 20)) [Example 335], the Relative cAMP EC50 was 0.292 nM in assay [1], 0.461 nM in the assay with hGLP-1R and 6.11 nM in assay [2]. The cAMP Rel EC50 (1% HSA) was found to be 46.7 nM in assay [1], 150 nM with hGLP-1R and 1410 nM in assay [2].

Take Y[Aib]QGT[αMePhe(2-F)]TSDYSKLLDKIAQKAFIEYLIEGGPSSGEPPPSEG-NH2 (not fully specified (residue 20)) [Example 330]: the results for the Relative cAMP EC50 (in assay [1]; in the assay with hGLP-1R; in assay [2]) were 0.0783 nM, 0.63 nM and 3.91 nM, respectively. In addition, the cAMP Rel EC50 (1% HSA) in assay [1] turned out to be 7.33 nM; in the assay with hGLP-1R, 91.8 nM; in assay [2] it was 398 nM.

Y[Aib]QGTFTSDYSK[αMeL]LDKKAQQAFVQWLIE[dA]GPSSGEPPPSEG-NH2 (not fully specified (residue 17)) [Example 342]: the Relative cAMP EC50 in assay [1] was 0.347 nM; in the assay with hGLP-1R, 0.419 nM; in assay [2], 10.2 nM. In addition, the cAMP Rel EC50 (1% HSA) in assay [1] amounted to 71.3 nM; with hGLP-1R, 62 nM; in assay [2], 2130 nM.

Regarding Y[Aib]QGTFTSDYSK[αMeL]LDKKAQQAFIEYLIAGGPSSGEPPPSGD-NH2 (not fully specified (residue 17)) [Example 337], the results for the Relative cAMP EC50 (in assay [1]; in the assay with hGLP-1R; in assay [2]) were 0.332 nM, 0.686 nM and 5.95 nM, respectively. Further, the cAMP Rel EC50 (1% HSA) in assay [1] stood at 99.1 nM; with hGLP-1R, 272 nM; in assay [2], 2950 nM.

Take Y[Aib]QGTFTSDYSI[αMeL]LDKQAAK([AEEA-AEEA-γGlu-C20 diacid])QFVEWLIAGGPSSGEPPPAEG-NH2 [Example 332]: the Relative cAMP EC50 in assay [1] was found to be 0.413 nM; with hGLP-1R, 1.24 nM; in assay [2], 11.8 nM. The cAMP Rel EC50 (1% HSA) in assay [1] was determined as 78.2 nM; with hGLP-1R it was 298 nM; in assay [2], 3340 nM.

B2: Example 347 (peptide)
chain: YXQGTXTSDXSILLDKQAQKAFIEYLLEGGPSSGEPPPSEG
modifications: not fully specified; synthetic construct; SITE 2: note = 2-Aminoisobutyric Acid; SITE 6: note = alpha-methyl-2-fluoro-L-phenylalanine; SITE 10: note = 3-(4-Pyridyl)-L-alanine; SITE 20: note = Lysine is chemically modified through conjugation of the epsilon-amino group of the Lysine side chain with (2-[2-(2-Amino-ethoxy))
On to B2, for which the Relative cAMP EC50 in assay [1] came out at 0.0634 nM; with hGLP-1R, 0.798 nM; in assay [2], 8.88 nM. The cAMP Rel EC50, nM (1% HSA) in assay [1] came to 17.3 nM; with hGLP-1R, 254 nM; in assay [2], 3650 nM.

Take Y[Aib]QGT[αMePhe(2-F)]TSDYSILLDKQAAKEFIEYLIEGGPSSGEPPPSEG-NH2 (not fully specified (residue 20)) [Example 348]: the Relative cAMP EC50 in assay [1] came to 0.127 nM; with hGLP-1R it was 0.346 nM; in assay [2], 3.9 nM. Besides, the cAMP Rel EC50, nM (1% HSA) was 36.4 nM in assay [1], 136 nM with hGLP-1R and 1250 nM in assay [2].

For the molecule Y[Aib]QGTFTSDYSI[αMeL]LDKQAAK([AEEA-AEEA-γGlu-C20 diacid])QFVEWLIA[Aib]GPSSGEPPPGEG-NH2 [Example 333], the Relative cAMP EC50 in assay [1] came out at 0.265 nM; in the assay with hGLP-1R, 0.705 nM; in assay [2], 7.09 nM. Also, the cAMP Rel EC50 (1% HSA) worked out at 36.3 nM in assay [1], 182 nM with hGLP-1R and 1410 nM in assay [2].

Take Y[Aib]QGT[αMePhe(2-F)]TSDYSKLLDKIAQKAFIEYLIEGGPSSGAPPPSEG-NH2 (not fully specified (residue 20)) [Example 339]: the results for the Relative cAMP EC50 (in assay [1]; with hGLP-1R; in assay [2]) were 0.101 nM, 1.06 nM and 6.81 nM, respectively. In addition, the cAMP Rel EC50 (1% HSA) came out at 28.8 nM in assay [1], 192 nM with hGLP-1R and 1510 nM in assay [2].

For the molecule Y[Aib]QGT[αMePhe(2-F)]TSDFSILLDKQAQKAFIEYLLEGGPSSGEPPPSEG-NH2 (not fully specified (residue 20)) [Example 346], the Relative cAMP EC50 in assay [1] amounted to 0.0738 nM; with hGLP-1R it was 1.17 nM; in assay [2] it was 15.6 nM. In addition, the cAMP Rel EC50 (1% HSA) in assay [1] was 28.3 nM; in the assay with hGLP-1R it was 514 nM; in assay [2] it was 4310 nM.

For the molecule Y[Aib]QGT[αMePhe(2-F)]TSDYSKLLDKIAQKAFIQYLIEGGPSSGEPPPSEG-NH2 (not fully specified (residue 20)) [Example 338], the Relative cAMP EC50 is 0.0733 nM in assay [1], 1.22 nM with hGLP-1R and 4.02 nM in assay [2]. Also, the cAMP Rel EC50 (1% HSA) in assay [1] is 10.9 nM; with hGLP-1R it was 172 nM; in assay [2] it was 659 nM.

For the molecule Y[Aib]QGT[αMePhe(2-F)]TSDYSILLDKQAAKEFIEYLIEGGPSSGAPPPSEG-NH2 (not fully specified (residue 20)) [Example 340], the Relative cAMP EC50 in assay [1] is 0.189 nM; in the assay with hGLP-1R, 0.648 nM; in assay [2] it was 2.02 nM. Besides, the cAMP Rel EC50 (1% HSA) in assay [1] turned out to be 60.4 nM; with hGLP-1R it was 246 nM; in assay [2] it was 647 nM.

For the molecule Y[Aib]QGTFTSDYSI[αMeL]LDKQAAKQFVEWLIA[Aib]GPSSGEPPPGTG-NH2 (not fully specified (residue 20)) [Example 336], the Relative cAMP EC50 in assay [1] was found to be 0.306 nM; in the assay with hGLP-1R, 0.921 nM; in assay [2], 7.05 nM. Moreover, the cAMP Rel EC50 (1% HSA) in assay [1] was determined as 64.4 nM; in the assay with hGLP-1R, 227 nM; in assay [2], 1740 nM.

In the case of Y[Aib]QGT[αMePhe(2-F)]TSDYSILLDKQAQKAFIEYLLEGGPSSGEPPPSEG-NH2 (not fully specified (residue 20)) [Example 345], the Relative cAMP EC50 in assay [1] came out at 0.0377 nM; in the assay with hGLP-1R, 0.658 nM; in assay [2] it was 11.3 nM. For the same molecule, the cAMP Rel EC50 (1% HSA) worked out at 15.3 nM in assay [1], 256 nM in the assay with hGLP-1R and 3300 nM in assay [2].

Turning to Y[Aib]QGTFTSDYSK[αMeL]LDKKAQQAFIEYLLAGGPSSGEPPPSGE-NH2 (not fully specified (residue 17)) [Example 344], the Relative cAMP EC50 in assay [1] worked out at 0.406 nM; with hGLP-1R it was 2.56 nM; in assay [2], 9.05 nM. In addition, the cAMP Rel EC50 (1% HSA) in assay [1] stood at 70.7 nM; with hGLP-1R it was 523 nM; in assay [2], 1440 nM.

As to Y[Aib]QGT[αMePhe(2-F)]TSDYSILLDKQAAKAFIEYLIEGGPSSGEPPPSEG-NH2 (not fully specified (residue 20)) [Example 331], the Relative cAMP EC50 was determined as 0.148 nM in assay [1], 0.663 nM in the assay with hGLP-1R and 1.66 nM in assay [2]. For the same molecule, the cAMP Rel EC50 (1% HSA) in assay [1] is 47.5 nM; with hGLP-1R, 207 nM; in assay [2] it was 339 nM.

On to Y[Aib]QGT[αMePhe(2-F)]TSD[Phe(4-CN)]SILLDKQAQKAFIQYLLEGGPSSGEPPPSEG-NH2 (not fully specified (residue 20)) [Example 341], for which the Relative cAMP EC50 worked out at 0.213 nM in assay [1], 1.62 nM with hGLP-1R and 10.7 nM in assay [2]. For the same molecule, the cAMP Rel EC50 (1% HSA) in assay [1] was 49.6 nM; with hGLP-1R, 395 nM; in assay [2], 2930 nM.

Consider Y[Aib]QGTFTSDYSI[αMeL]LDKQAAKQFIEYLIA[Aib]GPSSGEPPPSEG-NH2 (not fully specified (residue 20)) [Example 349], for which the Relative cAMP EC50 in assay [1] turned out to be 0.152 nM; with hGLP-1R, 0.555 nM; in assay [2], 5.12 nM. The cAMP Rel EC50, nM (1% HSA) was determined as 52.6 nM in assay [1], 218 nM in the assay with hGLP-1R and 2280 nM in assay [2].

(Values after patent US20240270821A1, “GIP/GLP1/GCG TRI-RECEPTOR AGONISTS AND USES THEREOF” (priority 2023, published 2024).)
